Biological target: T1, Flag-tagged TRIM24 N-terminal domain (amino acids 1-473) (mouse, UniProt Q64127 1-473)
T1 construct: TRIM24, mouse, N-terminal domain, amino acids 1-473; the recombinant constructs are numbered to residue 1051; also called amino-terminal region of the Trim24 protein; not shown: Flag, N-terminal, kept
T1 sequence (looked up): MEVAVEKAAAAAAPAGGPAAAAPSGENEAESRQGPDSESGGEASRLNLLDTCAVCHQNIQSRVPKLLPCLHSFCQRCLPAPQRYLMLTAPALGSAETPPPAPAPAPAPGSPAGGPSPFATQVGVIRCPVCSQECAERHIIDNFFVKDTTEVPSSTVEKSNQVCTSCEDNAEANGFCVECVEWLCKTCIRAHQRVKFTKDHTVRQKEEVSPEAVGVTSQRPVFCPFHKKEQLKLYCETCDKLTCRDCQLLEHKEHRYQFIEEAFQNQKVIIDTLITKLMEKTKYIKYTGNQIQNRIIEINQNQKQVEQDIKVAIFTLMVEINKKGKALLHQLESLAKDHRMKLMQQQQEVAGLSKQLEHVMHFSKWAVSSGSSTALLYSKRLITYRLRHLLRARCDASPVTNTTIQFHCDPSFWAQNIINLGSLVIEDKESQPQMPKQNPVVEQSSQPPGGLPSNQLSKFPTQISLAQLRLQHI
Assay: pull-down; Flag-tagged TRIM24 domains (0.25 nmol) mixed with Strep-tagged p53 in equimolar ratios, anti-Flag or Strep-Tactin beads, 2 h at 4 °C, 50 mM HEPES pH 8.0, 150 mM NaCl; stained gel
Conditions: both partners purified

- binding result: binds
B1: Strep-tagged mouse full-length p53 (natural protein, UniProt P02340 1-390, looked up)
chain: MTAMEESQSDISLELPLSQETFSGLWKLLPPEDILPSPHCMDDLLLPQDVEEFFEGPSEALRVSGAPAAQDPVTETPGPVAPAPATPWPLSSFVPSQKTYQGNYGFHLGFLQSGTAKSVMCTYSPPLNKLFCQLAKTCPVQLWVSATPPAGSRVRAMAIYKKSQHMTEVVRRCPHHERCSDGDGLAPPQHLIRVEGNLYPEYLEDRQTFRHSVVVPYEPPEAGSEYTTIHYKYMCNSSCMGGMNRRPILTIITLEDSSGNLLGRDSFEVRVCACPGRDRRTEEENFRKKEVLCPELPPGSAKRALPTCTSASPPQKKKPLDGEYFTLKIRGRKRFEMFRELNEALELKDAHATEESGDSRAHSSYLKTKKGQSTSRHKKTMVKKVGPDSD
notes: p53, mouse, full length; also called purified p53; Strep-tagged p53 full-length protein; source: Sf9 (Bac-to-Bac), purified (Strep-Tactin, heparin ion exchange, Superose 6 SEC); not shown: Strep-tag, N-terminal, kept

Source: publication PMC10352137, “Readout of histone methylation by Trim24 locally restricts chromatin opening by p53” (Nature Structural & Molecular Biology, 2023)
